The conditions of data set [1]: rat, in vivo.
Protocol: All experiments were conducted in accordance with the ARVO Statement for Use of Animals in Ophthalmic and Vision Research and with approval from the ANU Animal Experimentation Ethics Committee (Ethics ID: A2014/56). Adult Wistar rats were utilised in all experiments, which were born and reared under normal lighting conditions (˜5 lux light) and aged between 90 and 120 post-natal days at the time of use. Wistar rats were anaesthetised with an intraperitoneal injection of ketamine (100 mg/kg; Troy Laboratories, NSW, Australia) and Xylazil (12 mg/kg; Troy Laboratories). Once anaesthetised, Systane eye drops (Alcon, TX, USA) were applied every 2 minutes to maintain corneal lubrication. Animals were placed on a heat blanket to maintain body temperature at 37° C. and a cotton eye loop was applied around the eye to expose the anterior surface.
The inventors' HFB device (with A.A Lab Systems A-301 HS HV amplifier and RIGOL DG4062 Function/Arbitrary Waveform Generator) was loaded with 0.2% Riboflavin-5-phosphate-sodium (Riboflavin-5-phosphate-sodium-5-phosphate sodium #30-1598-25GM; PCCA, TX, USA), made up in sterile saline (0.9% NaCl), and applied to the centre of the cornea for 5 minutes. The settings on the device were as follows: transducer—1.6 MHz; amplifier—DC offset=off position; waveform generator—60 KHz sine waveform. The device was run for 5 minutes at 0, 3, 11 or 13 voltage peak to peak (VPP). […] Therefore, an electric circuit between the device and the eye tissue was not created.
Following delivery, the residual Riboflavin-5-phosphate-sodium was washed from the eye with normal saline. The animal was euthanized, the eyes removed and the eyes fixed in 4% paraformaldehyde for 5 minutes before being cryopreserved and immediately sectioned at 16 μm thickness.
Sections were visualised under a Nikon A1 confocal microscope using the green 488 channel and imaged using the 10× objective. Data analysis for quantification was performed with an n=3 with 8 regions per section, with the gain of the laser set to optimal fluorescence for the brightest section (gain setting 110) and maintained for all imaging.
The nature of data set [2]: SAW (30 MHz) perfusion of FITC-Albumin and Fluorescein in pig lip tissue (Example Three). It is filed as in vitro ADME. The settings on record: for perfusion into pig lip tissue with SAW: SAW 30 MHz, different exposure times and powers; for passive diffusion into pig lip tissue (control sample): no SAW. The source says: In this set of experiments, the effect of surface acoustic wave (SAW) at 30 MHz on FITC-Albumin and Fluorescein perfusion for different SAW powers and operating time was investigated.
Fluorescein sodium salt and FITC-Albumin were purchased from Sigma-Aldrich, Australia. Fresh porcine lips were obtained from diamond valley pork abattoir (Laverton, Melbourne) prior to the experiments. Surface acoustic wave (SAW) chip patterning of Chromium and Aluminum interdigital transducers (IDT) were fabricated using standard lithographic techniques at Micro Nano Research Facility (MNRF), RMIT University.
The lips were wrapped in sterile gauze saturated in Krebs buffer during transportation to maintain the viability of the tissues. […] The porcine lips were exposed to various molecules with and without the surface acoustic waves (SAW). The lips were washed immediately after the experiments to get rid of any reminent targeting molecules.
Samples were wrapped in aluminium foil and stored at −80 degree until dermatomed. The tissues were dermatomed in a cryostat at a thickness of 50-micron layer until 1 mm for extensive penetration studies.
Tissue sectioning was performed at RMIT Bundoora and Melbourne University campuses. Fluorescent images of the samples were obtained using optical microscope (×10 lens), consistent light exposure of 600 ms. Acquired images were then quantified using ImageJ software to calculate the normalized pixel intensity of the green channel.
The model drug (FITC-albumin and fluorescein) used was placed directly on the device throughout the experiments. Fresh lips were approximately dissected into a 1 cm*1 cm cube and was placed on the drug. No coupling agent or loading substrate was used to transmit the vibrations from device into tissues. The inter-digital electrodes (IDTs) patterned on the lithium niobate (piezoelectric substrate) generated surface waves (SAW), which in turn drives the model drugs into the tissues. (FIG. 12)

The conditions of data set [3]: for SAW samples pixel intensity: SAW approximately 4V; for SAW samples pixel intensity / Control samples pixel intensity: 5 s exposure, 30 μg/ml; for Control samples pixel intensity: no acoustic waves (0 mV). On the procedure:
The SAW device 10 illustrated in FIG. 1 was used to controllably deliver albumin-fluorescein isothiocyanate (FITC-albumin) across epithelial membranes of pig lips. Fresh lips tissues from pigs were obtained from a slaughterhouse. The experiments were conducted within 2 hours after the animals were sacrificed. The porcine lips were exposed to FITC-albumin molecules with and without the acoustic waves. The exposure time was 5 s for both control and SAW experiments. The power or voltage was maintained at 0 mV (no voltage) for control, and approximately 4V for SAW experiments. The concentration and the amount of FITC-Albumin (30 μg/ml) used was maintained constant throughout the penetration depth study.
The fresh tissues were further snap frozen in isopentane chilled by liquid nitrogen with the aid of optimal cutting temperature compound (OCT) as the embedding medium. Samples were further wrapped in aluminium foil and stored at −80° C. until sectioned by a dermatome. The tissues were sectioned by a dermatome in a cryostat to create samples of contiguous layers of tissue of 50 μm thickness.
Fluorescent images of the samples were obtained and quantified using Image J software to calculate the normalised pixel intensity of the green channel.

Where a name gives a salt, the structure may show the parent alone. Read-outs that look alike come from different tables or passages of the source.

Turning to `Cc1cc2nc3c(=O)[nH]c(=O)nc-3n(C[C@H](O)[C@H](O)[C@H](O)COP(=O)([O-])O)c2cc1C.[Na+]` [Riboflavin-5-phosphate-sodium], in data set [1], the “concentrations in posterior iris, ciliary body and choroid” value is “significant concentrations”; the “delivery to the posterior segment of the eye” value is given as “concentrated in the uveal tract”; the “fluorescence in anterior chamber and vitreous” value is listed as “did not show any fluorescence”; the “increase in average relative fluorescence intensity (RFI), treated versus control cornea” value is roughly 4 times.
Consider “albumin-fluorescein isothiocyanate [FITC-albumin]”, for which the “perfusion into pig lip tissue with SAW” value in data set [2] is “outstanding perfusion compared to passive diffusion”. Besides, the “passive diffusion into pig lip tissue (control sample)” value in data set [2] is “hardly any diffusion”. The “depth of delivery across the epithelial layers of the pig lips” value in data set [3] (SAW device, 5 s, tissue deeper than 500 μm not examined) is 500 μm. In addition, the “diffusion through the layers of the pig lips” value in data set [3] (control, no acoustic waves, 5 s) is “diffused evenly and uniformly through the layers of the pig lips”. In addition, the “SAW samples pixel intensity” value worked out at 37.192 in data set [3] (layer 100 μm); 19.733 in data set [3] (layer 150 μm); 19.835 in data set [3] (layer 200 μm); 14.041 in data set [3] (layer 250 μm); 11.229 in data set [3] (layer 300 μm); 16.047 in data set [3] (layer 350 μm). In addition, the “SAW samples pixel intensity” value amounted to 12.274 in data set [3] (layer 400 μm), 9.935 in data set [3] (layer 450 μm) and 9.958 in data set [3] (layer 500 μm). Besides, the “Control samples pixel intensity” value in data set [3] (layer 100 μm) is 7.52; in data set [3] (layer 150 μm), 7.421; in data set [3] (layer 200 μm) it was 6.617; in data set [3] (layer 250 μm), 6.126; in data set [3] (layer 300 μm), 7.488; in data set [3] (layer 350 μm), 7.405. The “Control samples pixel intensity” value was 7.589 in data set [3] (layer 400 μm), 6.886 in data set [3] (layer 450 μm) and 7.715 in data set [3] (layer 500 μm).
As to `O=C1OC2(c3ccc(O)cc3Oc3cc(O)ccc32)c2ccccc21` [Fluorescein, Fluorescein sodium salt], in data set [2], the “perfusion into pig lip tissue with SAW” value is recorded as “showed an improvement, especially for longer exposure time” and the “passive diffusion into pig lip tissue (control sample)” value is given as “prevalent”.

For the origin of these results see patent US20200324099A1, “ACOUSTIC WAVE MEDIATED NON-INVASIVE DRUG DELIVERY” (Mupharma Pty Ltd, priority 2016, published 2020).
